Reference: patent US20200376013

System: SDM-145

Sequence of hMMP-9 (chain, as listed by the source): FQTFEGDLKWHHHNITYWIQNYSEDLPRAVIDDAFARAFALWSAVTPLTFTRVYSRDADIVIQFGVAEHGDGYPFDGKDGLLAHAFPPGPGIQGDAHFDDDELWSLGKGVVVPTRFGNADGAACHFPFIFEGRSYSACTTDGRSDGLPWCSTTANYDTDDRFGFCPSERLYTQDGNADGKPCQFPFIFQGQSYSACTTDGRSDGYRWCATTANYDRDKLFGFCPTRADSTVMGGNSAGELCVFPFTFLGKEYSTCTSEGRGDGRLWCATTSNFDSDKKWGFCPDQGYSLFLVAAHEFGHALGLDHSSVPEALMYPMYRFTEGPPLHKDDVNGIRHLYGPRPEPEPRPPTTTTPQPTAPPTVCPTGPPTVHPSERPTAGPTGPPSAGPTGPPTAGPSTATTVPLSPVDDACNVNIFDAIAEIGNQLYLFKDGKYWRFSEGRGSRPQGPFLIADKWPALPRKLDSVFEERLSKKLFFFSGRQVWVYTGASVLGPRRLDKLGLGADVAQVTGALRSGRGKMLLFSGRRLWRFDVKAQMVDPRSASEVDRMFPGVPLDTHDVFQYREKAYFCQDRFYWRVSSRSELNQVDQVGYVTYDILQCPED

Substance	cleavage followed by LC-MS with fluorescence detection (ex 480 nm, em 560 nm), sodium acetate buffer pH 5.0, 37 C	cleavage followed by LC-MS with fluorescence detection (ex 480 nm, em 560 nm), TCNB buffer pH 7.5, 37 C
Cathepsin B, human liver	The cleavage reaction was complete after 17 hour.	
hMMP-9		The cleavage reaction was complete after 17 hour.
